A word on the stoichiometry N: it is a count of units in the complex or per binding partner.

The target in experiment [1] is BTV-15-VP5-Δ43-Nhis, unlabelled (Bluetongue virus serotype 15). Nature of the experiment: crystal structure; low pH crystal form: 1.0 M sodium chloride, 0.1 M Tris (pH 6.0), 20 °C; space group H3; native protein.
In experiment [2] the target is BTV-15-VP5-Δ43-Nhis, seleno-methionyl-derivatised (Bluetongue virus serotype 15). Nature of the experiment: crystal structure; high pH crystal form: 0.09 M sodium formate, 6.6% PGA-LM, 0.1 M Tris (pH 9.0), 20 °C; space group P1, nine subunits in the asymmetric unit; Se-Met protein.

“BTV-15-VP5-Δ43-Nhis, unlabelled (domain or fragment)”: in experiment [1], the stoichiometry N worked out at 3.
In the case of “BTV-15-VP5-Δ43-Nhis, seleno-methionyl-derivatised (domain or fragment)”, the stoichiometry N in experiment [2] was 3.

These data come from publication PMC11335306.
